Results taken from publication PMC12926040, “ADP-ribose is a competitive inhibitor of methanol dehydrogenases from Bacillus methanolicus” (The Journal of Biological Chemistry, 2025).

Tests used:
[1] = Specific activity of ACT and its mutants for the hydrolysis of ADPR; assay type: biochemical
Experimental: After a 5-minute incubation at 25°C, the reaction was terminated by the addition of 10 μL of 3 M H₂SO₄. The products were subsequently analyzed by HPLC.

BmMDH2 = BmMDH2 (Bacillus methanolicus, UniProt I3E949); test: BmMDH2 activation by ACT, NADH formation monitored at 340 nm; assay type: biochemical; conditions: 100 nM BmMDH2, 3 mM NAD+, pH 9.5
Experimental: Figure 1 ACT-catalyzed conversion of NAD^+ into a compound that activates BmMDH2.A, effect of ACT concentration on BmMDH2 activation. The formation of NADH was monitored at 340 nm, with 100 nM BmMDH2 in glycine-NaOH buffer (pH 9.5) containing 0 to 125 nM ACT, 3 mM NAD^+, 20 mM ethanol, 5 mM MgCl2 and 0.5 mM MnCl2. Data for the initial 10 min are highlighted in the right panel. Data were from a single experiment. B, effects of the following treatments on BmMDH2 activation: preincubated ACT & NAD^+ (red), preincubated ACT & BmMDH2 (blue), ultrafiltrate of preincubated ACT & NAD^+ (green), and ultrafiltrate of ACT (purple) or NAD^+ (cyan) solutions. Preincubations were performed in glycine-NaOH buffer (pH 9.5) with 5 mM MgCl2 and 0.5 mM MnCl2 at 25 °C for 30 min. Ethanol, BmMDH2, or NAD^+ was subsequently added to achieve final concentrations of 10 nM ACT, 20 mM ethanol, 3 mM NAD^+, and 200 nM BmMDH2. For ultrafiltration, preincubated samples were filtered (10 kDa cutoff, Millipore), and the flowthrough was used for activation assays. Data represent means ± SD (n = 3). C, effect of NAD^+ concentration on BmMDH2 activation. Activity was measured using 100 nM BmMDH2 in glycine-NaOH buffer (pH 9.5) with 50 nM ACT, 0 to 20 mM NAD^+, 5 mM MgCl2, and 0.5 mM MnCl2. Data were from a single experiment. D, time-course of BmMDH2 activation. Reaction were performed in 200 μl glycine-NaOH buffer (100 mM, pH 9.5) with 5 mM MgCl2, 0.5 mM MnCl2, 0.25 mM NAD^+, 0.1 μM BmMDH2, 20 mM ethanol, and 50 nM ACT. Fresh NAD^+ (4 μl, 150 mM) was added twice during the reaction. Data were from a single experiment. E, catalytic rates of BmMDH2 were calculated from the slopes of the data in panel D. Additional replicates of the experiments shown in panels A, C, and D are provided in Fig. S4. […]
The catalytic processes of MDHs were monitored by measuring NADH absorbance at 340 nm using a Tecan SPARK UV-Vis plate reader (Tecan Austria GmbH) at 25 °C. […]

BmMDH1 = conditions: ref [14], [15]; cited from earlier work

BmMDH2, sequence (I3E949 entry or part of it): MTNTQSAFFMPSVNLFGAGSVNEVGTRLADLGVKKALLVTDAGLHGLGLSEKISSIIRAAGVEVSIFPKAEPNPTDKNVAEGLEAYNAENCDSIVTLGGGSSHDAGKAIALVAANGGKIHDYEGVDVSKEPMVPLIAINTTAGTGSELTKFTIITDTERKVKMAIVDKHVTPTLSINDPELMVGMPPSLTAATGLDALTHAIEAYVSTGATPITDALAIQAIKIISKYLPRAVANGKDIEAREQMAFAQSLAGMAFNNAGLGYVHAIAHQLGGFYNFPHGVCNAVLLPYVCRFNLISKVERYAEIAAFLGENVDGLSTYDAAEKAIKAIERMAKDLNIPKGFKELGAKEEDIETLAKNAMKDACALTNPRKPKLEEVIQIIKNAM

B1: ACT: activator protein ACT, Nudix hydrolase from B. methanolicus MGA3 with ADPRase activity (protein)
chain: MGKLFEEKTIKTEQIFSGRVVKLQVDDVELPNGQTSKREIVRHPGAVAVIAITNENKIVMVEQYRKPLEKSIVEIPAGKLEKGEDPRVTALRELEEETGYECEQMEWLISFATSPGFADEIIHLYVAKGLSKKENAAGLDEDEFVDLIELTLDEALQYIKEKRIYDSKTVIAVQYLQLQEALK
modifications: left off: His tag (from the vector pET21a(+) and the Ni-affinity column), end not stated, state not stated
Specific activity (ADPRase) ([1]; pH 8.0, 400 μM ADPR, 5 mM MgCl2, 25 °C): 61.2 ± 0.5 U/mg
ADPRase activity ([1]; pH 9.5): 51.6 ± 0.4 U/mg
time to full activation of BmMDH2 (BmMDH2; 31.3 nM ACT): ≤ 2.8 min
ACT concentration that triggered immediate BmMDH2 activation (BmMDH2): > 62 nM
increase of BmMDH1 activity (BmMDH1): 40 fold
